The source of these data is paper PMC10859935, “Surface Charge Can Modulate Phase Separation of Multidomain Proteins” (Journal of the American Chemical Society, 2024).

Test [1] has as its target polySIM (protein consisting of 10 SIMs derived from the PIASx protein).
The target of test [2] is small ubiquitin-like modifier protein 1 (SUMO1) domain, wild type (UniProt P63165). Nature of the test: static light scattering (second virial coefficient A2); pH 8.0; 25 °C; 20 mM HEPES, 150 mM KCl, 1 mM MgCl2, 1 mM DTT, 1 mM EGTA; A2 from the slope of scattering intensity versus concentration.
Test [3] shares this target. Put plainly: static light scattering (second virial coefficient A2); pH 6.5; 25 °C; A2 from the slope of scattering intensity versus mass concentration; weak self-association of a single domain.
Test [4] has as its target T1, small ubiquitin-like modifier protein 1 (SUMO1) domain, wild type (UniProt P63165 1-97).
T1 construct: SUMO1, single domain; also called WT SUMO; WT SUMO1; source: BL21(DE3) T1R cells, purified (Ni-NTA, TEV cleavage, Source15Q, Superdex200); not shown: His8, N-terminal, cleaved
Put plainly: ITC; 50–100 μM SIM peptide in the cell, SUMO in the syringe; 25 °C; 20 mM HEPES (pH 7.0 or 8.0) or 20 mM MES (pH 6.5), 150 mM KCl, 1 mM MgCl2, 1 mM DTT, 1 mM EGTA; 1:1 binding model. Conditions: both partners purified. In general terms: In ITC the heat of successive injections is recorded.

T1 sequence (P63165 1-97): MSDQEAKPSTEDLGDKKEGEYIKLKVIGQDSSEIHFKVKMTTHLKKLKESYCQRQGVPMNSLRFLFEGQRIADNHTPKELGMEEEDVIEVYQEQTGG

For the molecule “polySUMO (synthetic protein consisting of five SUMO domains)”, in test [1], the phase-separation threshold (module concentration, equimolar modules) by turbidity at 340 nm, pH 6 came to 75 μM; the phase-separation threshold (module concentration, equimolar modules) by turbidity at 340 nm, pH 6.5 was 100 μM; the phase-separation threshold (module concentration, equimolar modules) by turbidity at 340 nm, pH 7 stood at 150 μM; the phase-separation threshold (module concentration, equimolar modules) by turbidity at 340 nm, pH 8 turned out to be 300 μM.
Regarding “small ubiquitin-like modifier protein 1 (SUMO1) domain, wild type (from UniProt P63165 1-97) (natural protein)”, the A2 (second virial coefficient) was 0.00012 mol mL g^–2 in test [2] and -0.00012 mol mL g^–2 in test [3].
Take KVDVIDLTIESSSDEEEDPPAKR [SUMO interaction motif (SIM) peptide derived from the PIASx protein]: in test [4], the Kd (usually the free concentration of one partner at which half of the binding sites on the other are occupied at equilibrium, for simple one-to-one binding) was 15 to 20 µM.
